These are literature values, as cited in PMC5394478.

Series [1] concerns the target IFNLR1 Box1 (Homo sapiens) (UniProt Q8IU57). The experiment in a line: Biolayer Interferometry. In general terms: BLI is a label-free optical method that tracks binding on a fibre tip over time.
The target in series [2] is IFNLR1 Box1-Box2 (Homo sapiens) (UniProt Q8IU57). Kind of series: Biolayer Interferometry.

One may read the Kd as the constant that tells how readily two partners part at equilibrium. For JAK1 FERM-SH2 (from UniProt P23458), the Kd in series [1] is 1200 nM; in series [2] it was 70 nM.
